Series [1] concerns the target GST-Bicc1 (full-length, WT) (UniProt Q99MQ1). Kind of series: pull-down; full-length GST-Bicc1 (WT or mutD) on glutathione-Sepharose 4B beads, no RNA; HEK293T cell extracts with full-length or truncated ANKS3-Flag; 2 h at 4°C; western blot.
A further series deals with GST-Bicc1 WT. Kind of series: GST pull-down, fluorescent RNA. Conditions: 100 pmol labeled RNA with 5-10 pmol GST-Bicc1 on glutathione beads, 1 h at 4 C, then HEK293T extract (20 mM Tris-HCl pH 7.4, 2.5 mM MgCl2, 100 mM NaCl, 5% …).
In the next series the test system is GST-Bicc1 mutD. Kind of series: GST pull-down, fluorescent RNA. Conditions: after incubation with ANKS3-Flag HEK293T extract; 100 pmol labeled RNA with 5-10 pmol GST-Bicc1 on glutathione beads, 1 h at 4 C; then HEK293T extract (20 mM Tris-HCl pH 7.4, 2.5 mM MgCl2, 100 mM NaCl, 5% …).
Series [2] addresses GST-Bicc1-KH (complete KH tandem repeat of Bicc1 fused to GST). Kind of series: pull-down; GST fusions of Bicc1 fragments (KH tandem repeat, KH1, KH2, IVS) on glutathione-Sepharose 4B beads; HEK293T cell extracts with ANKS3-Flag (full-length or ΔNter), without v5-ANKS6; 2 h at 4°C; western blot. (Immunoblotting shows a protein as a band on a membrane.)

UniProt Q99MQ1, sequence (Q99MQ1 whole entry, the tested form may be a part): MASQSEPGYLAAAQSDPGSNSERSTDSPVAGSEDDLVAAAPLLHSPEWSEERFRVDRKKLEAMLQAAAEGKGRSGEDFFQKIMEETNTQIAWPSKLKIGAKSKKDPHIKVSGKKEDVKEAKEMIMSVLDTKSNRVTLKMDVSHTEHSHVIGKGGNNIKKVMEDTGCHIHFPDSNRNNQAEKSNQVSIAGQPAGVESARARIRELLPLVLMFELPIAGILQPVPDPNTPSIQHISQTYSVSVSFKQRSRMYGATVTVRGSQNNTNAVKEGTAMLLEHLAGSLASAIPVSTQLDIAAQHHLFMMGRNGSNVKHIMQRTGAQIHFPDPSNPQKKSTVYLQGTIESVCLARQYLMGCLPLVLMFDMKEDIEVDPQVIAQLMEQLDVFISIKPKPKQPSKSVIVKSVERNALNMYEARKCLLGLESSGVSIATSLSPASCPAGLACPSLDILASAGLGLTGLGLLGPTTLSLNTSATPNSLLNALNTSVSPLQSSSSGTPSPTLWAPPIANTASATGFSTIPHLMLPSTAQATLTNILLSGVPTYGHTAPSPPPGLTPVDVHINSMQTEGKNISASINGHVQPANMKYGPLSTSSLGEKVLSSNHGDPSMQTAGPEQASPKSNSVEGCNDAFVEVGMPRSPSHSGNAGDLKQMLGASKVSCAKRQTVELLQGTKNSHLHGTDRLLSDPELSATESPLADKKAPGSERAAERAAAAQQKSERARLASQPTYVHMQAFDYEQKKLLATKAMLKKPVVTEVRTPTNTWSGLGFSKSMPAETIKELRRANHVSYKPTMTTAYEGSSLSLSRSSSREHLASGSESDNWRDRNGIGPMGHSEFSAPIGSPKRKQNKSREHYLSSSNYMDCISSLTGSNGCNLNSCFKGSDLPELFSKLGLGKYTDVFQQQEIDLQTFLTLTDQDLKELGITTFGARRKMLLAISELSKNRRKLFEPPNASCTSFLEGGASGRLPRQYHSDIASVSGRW

Regarding “ANKS3 ΔSAM-Flag (from UniProt Q6ZW76 1-656) (domain or fragment)”, in series [1], the percent decrease of binding against full-length ANKS3-Flag amounted to 60%. Regarding Dand5-3'UTR 66-110 RNA, the binding signal (% (reference)) in the series with GST-Bicc1 WT came out at 100. This molecule also returned a binding signal (% of RNA bound by WT GST-Bicc1) in the series on GST-Bicc1 mutD of 231.

For the molecule Dand5-3'UTR 226-270 RNA, the binding signal (% (relative to 66-110 RNA, inferred)) with GST-Bicc1 WT (with ANKS3-Flag HEK293T extract) was 17.2.

B1: ANKS3 ΔNter-Flag (domain or fragment)
chain: MMDTYSPSLPKSLYRSPEKYEDLSSSDESCPAPQRQRPCRKKGVSIHEGPRALARITGIGLGGRAPRPRYEQAPPRGYVTFNSSGENPLEEEGLCCRDVTSPINERDVESSSSSSSREEHAFCANLGPVQSSSSSEGLARAQGLSSEASVESNEDSDHACKSSARKQAKSYMKTKNPDSQWPPRAATDREGFLAESSPQTQRAPYSGPQDLAALLEQIGCLKYLQVFEEQDVDLRIFLTLTESDLKEIGITLFGPKRKMTSAIARWHSSARPPGDALELAYADRLEAEMQELAIQLHKRCEEVEATRGQVCQEQELRAVVESCLLEQDRAREDLQARLRETWALARDAALVLDQLRACQAELSSRVRQDQPPGAATLGLAVPPADSKGWQASLQAMSLPELSGALEDRVREMGQALCLVTQSLEKLQVLNGKKWRET
The molecule B1 returned a fold change of binding against full-length ANKS3 in series [2] of 8 fold.

(Values after PMC10513324.)
